The values that follow come from patent US20140357844A1 (RINAT NEUROSCIENCE, published 2014).

For test [1], the target named is T1, Trop-2 on Trop-2 expressing tumor cells (human, UniProt P09758 27-323).
T1 sequence: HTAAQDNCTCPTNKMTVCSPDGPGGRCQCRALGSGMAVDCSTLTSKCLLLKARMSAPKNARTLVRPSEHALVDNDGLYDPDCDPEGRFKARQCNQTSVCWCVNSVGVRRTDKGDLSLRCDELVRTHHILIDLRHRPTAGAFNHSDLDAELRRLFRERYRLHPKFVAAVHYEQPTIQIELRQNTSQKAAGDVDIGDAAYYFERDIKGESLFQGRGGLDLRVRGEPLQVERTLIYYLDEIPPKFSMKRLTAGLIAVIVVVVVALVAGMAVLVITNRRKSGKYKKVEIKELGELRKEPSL
Put plainly: cell-based or functional assay.

In test [2] the target is T1, Trop-2 on Trop-2 expressing tumor cells. In words: cell-based or functional assay. This is another data set of the same source.
The target in test [3] is T2, monovalent human Trop2-ECD antigen (human, UniProt P09758 27-274).
T2 construct: also called human Trop2-ECD (Extracellular Domain)
T2 sequence: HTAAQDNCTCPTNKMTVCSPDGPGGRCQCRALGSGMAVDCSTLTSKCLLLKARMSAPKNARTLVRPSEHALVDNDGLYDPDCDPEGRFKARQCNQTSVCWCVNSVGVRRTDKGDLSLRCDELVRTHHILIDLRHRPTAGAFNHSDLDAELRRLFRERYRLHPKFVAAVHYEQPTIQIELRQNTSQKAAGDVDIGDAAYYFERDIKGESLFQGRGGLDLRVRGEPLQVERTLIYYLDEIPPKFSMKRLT
Put plainly: SPR (ProteOn XPR36), amine-coupled Fab, monovalent human Trop2-ECD as analyte, 25 C.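 Further: GLC sensor chip, 3 min association then 15 min buffer dissociation, kinetics fit with a 1:1 Langmuir model, buffer of 10 mM sodium phosphate with 150 mM NaCl and 0.05% Tween-20 at pH 7.4.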
Description: Analysis of Fab/human Trop2-ECD (Extracellular Domain) interactions was performed using a Bio-Rad Proteon XPR36Surface Plasmon Resonance (SPR) biosensor (Bio-Rad, Hercules, Calif.) equipped with a GLC sensor chip. The assay temperature was 25° C., and the assay buffer was 10 mM Sodium Phosphate, 150 mM NaCl, 0.05% Tween-20, pH 7.4. […] In each analysis cycle, monovalent human Trop2-ECD antigen was flowed at 30 μL/min over the immobilized Fabs for 3 minutes followed by a buffer wash for 15 minutes to monitor dissociation of the Fab/Trop2 complex. The sensor surface was regenerated between analysis cycles, using three 18-second injections of a 2:1 mixture (by volume) of Pierce IgG Elution buffer:4 M NaCl (Pierce, Rockford, Ill.). […] The resulting data were fit to a 1:1 Langmuir binding model using the Proteon evaluation software.

Where a chain is given by its changes, count along the chain named. Names may count otherwise. “And” between values parts separate entries of the source, which are not always exact repeats. Equal values may be shown once.

B1: h7E6SVG-N297Q/K222R-PEG6MMAD (antibody, V domains shown)
VH: QVQLQESGPGLVKPSETLSLTCTVSGGSISSYGVHWIRQPPGKGLEWIGVIWTSGVTDYNSALMGRVTISVDTSKNQFSLKLSSVTAADTAVYYCARDGDYDRYTMDYWGQGTLVTVSS
VL: DIVMTQSPDSLAVSLGERATINCRASKSVSTSGYSYMHWYQQKPGQPPKLLIYLASNLESGVPDRFSGSGSGTDFTLTISSLQAEDVAVYYCQHSRELPYTFGQGTKLEIK
modifications: N297Q/K222R mutations in the CH2/Hinge domains of heavy chain; conjugated with PEG6-MMAD
With B1, in test [1], the “Ab IC50, cell viability (CellTiter-Glo, 96 h), A431 (Trop2 +++)” value (from here on “Ab IC50, cell viability … A431 (Trop2 +++)”) stood at 0.07 nM; the “Ab IC50, cell viability (CellTiter-Glo, 96 h), BxPC3 (Trop2 ++)” value (“Ab IC50, cell viability … BxPC3 (Trop2 ++)” for short) was 0.03 nM; the “Ab IC50, cell viability (CellTiter-Glo, 96 h), Calu-3 (Trop2 ++)” value (shortened to “Ab IC50, cell viability … Calu-3 (Trop2 ++)”) was 0.5 nM; the “Ab IC50, cell viability (CellTiter-Glo, 96 h), Colo205 (Trop2 +)” value (shortened to “Ab IC50, cell viability … (Trop2 +)”) came to 21.1 nM. In test [1], the “Ab IC50, cell viability (CellTiter-Glo, 96 h), MDA-MB-468 (Trop2 ++)” value is 0.19 nM; the “Ab IC50, cell viability (CellTiter-Glo, 96 h), NCI-H292 (Trop2 ++)” value (shortened to “Ab IC50, cell viability … NCI-H292 (Trop2 ++)”) turned out to be 0.03 nM; the “Ab IC50, cell viability (CellTiter-Glo, 96 h), NCI-H1650 (Trop2 ++)” value was determined as 0.38 nM; the “Ab IC50, cell viability (CellTiter-Glo, 96 h), OVCAR3 (Trop2 +++)” value is 0.98 nM. The “Ab IC50, cell viability (CellTiter-Glo, 96 h), SKBR3 (Trop2 +/++)” value in test [1] is 0.08 nM.

B2: h7E6-N-TG1-vcMMAD (AcLys-vcMMAD conjugate) (antibody, V domains shown)
VH: B1 VH with S54G, V56S, G65S
VL: B1 VL with G33N
With B2, in test [2], the “Ab-IC50, cell viability (CellTiter-Glo, 96 h), A431 (Trop-2+++)” value (“Ab-IC50, cell viability … (Trop-2+++)” for short) was 0.024 µg/mL and 0.163 nM; the “Ab-IC50, cell viability (CellTiter-Glo, 96 h), CAPAN-2 (Trop-2+/++)” value (shortened to “Ab-IC50, cell viability … (Trop-2+/++)”) was 2.02 µg/mL and 13.5 nM; the “Ab-IC50, cell viability (CellTiter-Glo, 96 h), Colo205 (Trop-2+)” value (from here on “Ab-IC50, cell viability … (Trop-2+)”) was 0.1 µg/mL and 0.668 nM.

B3: h7E6-SVG-TG1-vcMMAD (Aminocapryl-vcMMAD conjugate) (antibody, V domains shown)
VH: B1 VH
VL: B1 VL
Take B3: the “Ab-IC50, cell viability (CellTiter-Glo, 96 h), BxPC3 (Trop-2++)” value (“Ab-IC50, cell viability … (Trop-2++)” below) in test [2] was 0.034 µg/mL and 0.229 nM.

B4: h7E6-L-TG1-vcMMAD (AcLys-vcMMAD conjugate) (antibody, V domains shown)
VH: B1 VH with S54G, V56S, G65S
VL: B1 VL with G33L
As to B4, in test [2], the “Ab-IC50, cell viability … (Trop-2+++)” value is 0.02 µg/mL and 0.132 nM; the “Ab-IC50, cell viability … (Trop-2++)” value was 0.035 µg/mL and 0.232 nM; the “Ab-IC50, cell viability … (Trop-2+/++)” value was 2.03 µg/mL and 13.5 nM; the “Ab-IC50, cell viability … (Trop-2+)” value was 0.082 µg/mL and 0.549 nM.

B5: h7E6SVG-K222R-LCQ3-AcLys-vc-PABC-MMAD (antibody, human IgG1, V domains shown)
VH: B1 VH
VL: B1 VL
For the molecule B5, in test [2], the “Ab-IC50, cell viability … (Trop-2+++)” value was 0.01 µg/mL and 0.07 nM; the “Ab-IC50, cell viability … (Trop-2++)” value was 0.014 µg/mL and 0.092 nM; the “Ab-IC50, cell viability … (Trop-2+)” value was 2.68 µg/mL and 17.9 nM.

B6: h7E6SVG-LCQ03/K222R-vc0101 (antibody, human IgG1, V domains shown)
VH: B1 VH
VL: B1 VL
modifications: AcLys-vc-PABC-0101 on tag LCQ03 (SEQ ID NO: 78) at the C-terminus of the light chain; K222R in the heavy chain constant region
As for B6, in test [1], the “Ab IC50, cell viability … A431 (Trop2 +++)” value was found to be 0.03 nM; the “Ab IC50, cell viability … BxPC3 (Trop2 ++)” value is 0.13 nM; the “Ab IC50, cell viability … (Trop2 +)” value came out at 174 nM.

B7: h7E6-SVGL-TG1-vcMMAD (AcLys-vcMMAD conjugate) (antibody, V domains shown)
VH: B1 VH
VL: B1 VL with G33L
As to B7, in test [2], the “Ab-IC50, cell viability … (Trop-2+++)” value was 0.018 µg/mL and 0.12 nM; the “Ab-IC50, cell viability … (Trop-2+/++)” value was 2.44 µg/mL and 16.3 nM; the “Ab-IC50, cell viability … (Trop-2+)” value is 0.052 µg/mL and 0.345 nM.

B8: h7E6SVG-LCQ04/K222R-vc0101 (antibody, human IgG1, V domains shown)
VH: B1 VH
VL: B1 VL
modifications: AcLys-vc-PABC-0101 on tag LCQ04 (SEQ ID NO: 79 as printed) at the C-terminus of the light chain; K222R in the heavy chain constant region
Consider B8, for which, in test [1], the “Ab IC50, cell viability … BxPC3 (Trop2 ++)” value worked out at 0.11 nM; the “Ab IC50, cell viability … Calu-3 (Trop2 ++)” value amounted to 1.51 nM; the “Ab IC50, cell viability … NCI-H292 (Trop2 ++)” value is 1.84 nM.

B9: h7E6-SVGN-TG1-vcMMAD (AcLys-vcMMAD conjugate) (antibody, V domains shown)
VH: B1 VH
VL: B1 VL with G33N
Regarding B9, in test [2], the “Ab-IC50, cell viability … (Trop-2+++)” value is 0.023 µg/mL and 0.153 nM; the “Ab-IC50, cell viability … (Trop-2++)” value is 0.051 µg/mL and 0.337 nM; the “Ab-IC50, cell viability … (Trop-2+/++)” value is 2.01 µg/mL and 13.4 nM; the “Ab-IC50, cell viability … (Trop-2+)” value was 0.083 µg/mL and 0.552 nM.

B10: h7E6-WT-TG1-vcMMAD (AcLys-vcMMAD conjugate) (antibody, V domains shown)
VH: B1 VH with S54G, V56S, G65S
VL: B1 VL
Take B10: in test [2], the “Ab-IC50, cell viability … (Trop-2+++)” value is 0.022 µg/mL and 0.144 nM; the “Ab-IC50, cell viability … (Trop-2++)” value was 0.025 µg/mL and 0.169 nM; the “Ab-IC50, cell viability … (Trop-2+/++)” value was 1.96 µg/mL and 13 nM; the “Ab-IC50, cell viability … (Trop-2+)” value is 0.445 µg/mL and 2.97 nM.

B11: h7E6SVG-TG6-vc0101 (antibody, human IgG1, V domains shown)
VH: B1 VH
VL: B1 VL
modifications: AcLys-vc-PABC-0101 on tag TG6 (LLQGA, SEQ ID NO: 79) at the C-terminus of the heavy chain
For the molecule B11, in test [1], the “Ab IC50, cell viability … A431 (Trop2 +++)” value was 0.12 nM; the “Ab IC50, cell viability … BxPC3 (Trop2 ++)” value stood at 0.32 nM; the “Ab IC50, cell viability … Calu-3 (Trop2 ++)” value is 0.53 nM; the “Ab IC50, cell viability … (Trop2 +)” value is 32.9 nM. Also, in test [1], the “Ab IC50, cell viability (CellTiter-Glo, 96 h), MDA-MB-468 (Trop2 ++)” value worked out at 0.77 nM; the “Ab IC50, cell viability … NCI-H292 (Trop2 ++)” value was determined as 0.63 nM; the “Ab IC50, cell viability (CellTiter-Glo, 96 h), NCI-H1650 (Trop2 ++)” value worked out at 1.92 nM; the “Ab IC50, cell viability (CellTiter-Glo, 96 h), OVCAR3 (Trop2 +++)” value is 0.56 nM. Moreover, the “Ab IC50, cell viability (CellTiter-Glo, 96 h), SKBR3 (Trop2 +/++)” value in test [1] was 0.42 nM.

B12: h7E6SVG-TG6-AcLys-vc-PABC-MMAD (antibody, human IgG1, V domains shown)
VH: B1 VH
VL: B1 VL
As for B12, in test [2], the “Ab-IC50, cell viability … (Trop-2+++)” value was 0.011 µg/mL and 0.072 nM; the “Ab-IC50, cell viability … (Trop-2++)” value is 0.032 µg/mL and 0.214 nM; the “Ab-IC50, cell viability … (Trop-2+)” value was 0.209 µg/mL and 1.39 nM.

B13: h7E6_SVG19 Fab (Fab, V domains shown)
VH: B1 VH with G99S
VL: B1 VL
notes: also called DS (h7E6_SVG19)
For orientation: Kd means a measure of binding affinity in units of concentration. High values mean weaker binding, low ones tighter binding. For orientation: koff means a measure of how fast the partners let go of each other. Broadly, the kon is the second-order rate constant of association. Consider B13, for which, in test [3], the Kd was > 75 nM, the dissociation rate constant (koff) came to 0.045 s⁻¹, the association rate constant (kon) was < 600000 M⁻¹ s⁻¹ and the t1/2 turned out to be 15.6 s.

B14: h7E6_SVG30 Fab (Fab, V domains shown)
VH: B1 VH with G99E
VL: B1 VL
notes: also called DE (h7E6_SVG30)
As for B14, in test [3], the dissociation constant (Kd) is > 75 nM, the koff was 0.064 s⁻¹, the on-rate (kon) is < 850000 M⁻¹ s⁻¹ and the t1/2 came to 10.8 s.

B15: h7E6_SVG22 Fab (Fab, V domains shown)
VH: B1 VH with G99A
VL: B1 VL
notes: also called DA (h7E6_SVG22)
In the case of B15, in test [3], the Kd was > 75 nM, the koff is 0.013 s⁻¹, the on-rate constant (kon) was < 180000 M⁻¹ s⁻¹ and the t1/2 turned out to be 51.6 s.

B16: h7E6_SVG20 Fab (Fab, V domains shown)
VH: B1 VH with G99K
VL: B1 VL
notes: also called DK (h7E6_SVG20)
Regarding B16, in test [3], the dissociation constant Kd is > 75 nM, the off-rate (koff) was determined as 0.013 s⁻¹, the kon was < 170000 M⁻¹ s⁻¹ and the t1/2 turned out to be 52.8 s.

B17: h7E6_SVG28 Fab (Fab, V domains shown)
VH: B1 VH with G99L
VL: B1 VL
notes: also called DL (h7E6_SVG28)
As for B17, in test [3], the dissociation constant (Kd) was > 75 nM, the koff stood at 0.016 s⁻¹, the kon is < 210000 M⁻¹ s⁻¹ and the t1/2 was found to be 43.2 s.

B18: 6G11-TG1-vcMMAD (AcLys-vcMMAD conjugate) (antibody, V domains shown)
VH: QVQLQQPGAELVRPGASVKLSCKASGYTFTSYWINWVKQRPGHGLEWIGNIYPSDSYSNYNQKFKDKATLTVDKSSSTAYMQVSSPTSEDSAVYYCTYGSSFDYWGQGTTVTVSS
VL: DILLTQSPAILSVSPGERVSFSCRASQTIGTSIHWYQQRTNGSPRLLIKYASESISGIPSRFSGSGSGTDFTLSINSVESEDIADYYCQQSNSWPFTFGSGTKLEIK
B18: in test [2], the “Ab-IC50, cell viability … (Trop-2+++)” value was 0.03 µg/mL and 0.197 nM; the “Ab-IC50, cell viability … (Trop-2+)” value was 0.379 µg/mL and 2.52 nM.
